From paper PMC11928938
Values belong to the substance of their own block, whether it stands above or below them.

Experiments:
Assay in all cases: SEC; size-exclusion chromatography on Superdex 200 of purified recombinant hGlyRS; dimer and monomer forms fractionated; dimer to monomers
[1] = biological target: human glycyl-tRNA synthetase H418R variant (hGlyRS-H418R), recombinant (human)
[2] = biological target: human glycyl-tRNA synthetase S211F variant (hGlyRS-S211F), recombinant (human)
[3] = biological target: human glycyl-tRNA synthetase, wild type (hGlyRS-WT), recombinant (human)

dimer:monomer (D:M) ratio, dimer part (dimer parts against 3.0 monomer parts) [1]: 7 | stoichiometry N [1]: 2
Substance: human glycyl-tRNA synthetase H418R variant (hGlyRS-H418R), recombinant (enzyme)

dimer:monomer (D:M) ratio, dimer part (dimer parts against 6.2 monomer parts) [2]: 3.8
Substance: human glycyl-tRNA synthetase S211F variant (hGlyRS-S211F), recombinant (enzyme)

dimer:monomer (D:M) ratio, dimer part (dimer parts against 0.9 monomer parts) [3]: 9.1 | stoichiometry N [3]: 2
Substance: human glycyl-tRNA synthetase, wild type (hGlyRS-WT), recombinant (enzyme)
